From the supplement of paper PMC9170038

Tested on: MS2 coat protein
Assay: apparent KD of MS2 coat protein; higher = weaker reporter binding
Conditions: Eterna round: R107
In short: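 Each design's apparent KD comes from the median of binding-curve fits to its normalised clusters. Those clusters carried RNA switches transcribed on-chip from Illumina sequencing clusters. SNAP-549-labelled MS2 coat protein was titrated onto them in twofold steps (0.7 or 1.5 nM to 3 µM; per step 0.8–1.5 h down to 10–20 min). Conditions were 100 mM Tris-HCl pH 7.5, 80 mM KCl, 4 mM MgCl2, without or with constant ligand.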

[1] = input ligand: theophylline 20 uM
[2] = input ligand: theophylline 2 mM
[3] = input ligand: tryptophan 2.4 mM

| Sequence | apparent KD of MS2 coat protein (input ligand: arginine 13.2 mM) [nM] | apparent KD of MS2 coat protein (input ligand: none) [nM] | apparent KD of MS2 coat protein [1] [nM] | apparent KD of MS2 coat protein [2] [nM] | apparent KD of MS2 coat protein [3] [nM] |
| --- | --- | --- | --- | --- | --- |
| GGGUGCGGGCGAAGGAGCGUGAAGACAUGAGGAUCACCCAUGUAGAGGCCCGAACAGGGUUCGCAGGUAGGUCGCGCGCGUGCCC [#1 Same State - Arginine B Attempt #5 (HarryS)] | 11.8 | 15.6 | 20.4 | 18.6 | 16.3 |
| CUGCCAUGCAGAGAUACCAGUGAGCUCAUAACAUGAGGAUCACCCAUGUACGCCGCAGAUCACCCUUGGCAGCUCUGCAUGGCAG [!#*@)] | 8.21 | 9.18 | 11.5 | 10.1 | 9.83 |
| UGUACCAUGUCGGCCGCCACUCAUGAUAAACAUGAGGAUCACCCAUGUGGCGUCAAAGACGCUAUGAGGACCGGGACAUGGUACU [TryBS Zipper 3 #StaticStem #Zipper] | 15.3 | – | 19.9 | 15.7 | – |
| AGCGGAACGGAAGGGUCCCAAAAUUGUGAUACCAGCCUUGAAUCCGGCCCUUGGCAGCACAUGAGGAUCACCCAUGUACUGCGGU [Celate] | 11.1 | 11 | 24.6 | 123 | 14.4 |
| AUACAUGAGGAUCACCCAUGUCCUCGUGAUCGAGGACCGGUACGGCCGCCACUCGGUCCUCGCGAGGUGGAGUCAAAGACUCCAA [Omei Trp A SS A v5] | 109 | – | 166 | 137 | – |
| GGCCAUGGAAACAUGGCGGCGGCAUAAGCGCGAGGACCGGUACGGCCGCCACUCGGGCGACAUGAGGAUCACCCAUGUUCCUCAU [ETA NP+V+V2 #23 Same Structure] | 105 | – | 413 | 529 | – |
| UGACAUUGCUGCGAUACCAGACAUGAGGAUCACCCAUGUACCAAGGUAAAGAAAUAACGUGUCCCUUGGCAGCGCAGCAAUGUCU [MAT - Exclusion Theophlline B - Mod of Eli - D8] | 11.5 | – | 13.9 | – | 10.1 |
| UACAUGAGGAUCACCCAUGUGGCGGAUGAUACCAGUAUGGUGACAUACCCUUGGCAGCAUGCUAUGAGGAUCACCCAUGUGUGCA [EThA NP+V+V2 #11 DOUBLE] | 56.3 | – | 84.9 | – | 70.7 |
| UAUCUACAUAUAUAGGUUAUUCGAUUAUUUCGAGGACCGGUACGGCCGCCACUCGUUAACAUAUACAUGAGGAUCACCCAUGUUA [JR_Nu_SSTryptoA_Sub023] | 15.6 | – | 19 | 17.5 | – |
| UGACAUUGCUCAGAUACCAGACUUGAGGAACACCCAAGUGCCAACAAGUAUAUAAUAAAAGUCCCUUGGCAGCUGAGCAAUGUCU [TheoBX 19 #MS2Left #AlternativeMS2 #Theo2] | 42.8 | 47.8 | 105 | 318 | 45.3 |
| CUAUAAGUAGCGGCCGCCACUUACUCAUGAGGUAACAACAUGAGGAUCACCCAUGUUUGAGGAUCAAGGACCGGGCUAUUUAUAG [AstrosSSTryB#9] | 24.7 | 28.7 | 32.6 | 31.5 | 17.6 |
| CUUAUUUGCUGAAGGAGCGCCCGAGGAGAAGACAUGAGGAUCACCCAUGUAUAUAGUAUAUGGCAGGUAGGUCGCGGUGGGUAGG [Arginine B Same State; Euphoria Solution 3] | 28.1 | 30 | 65 | 31.2 | 26.9 |
| UCGUUUUAGUCGGCCGCCACUGAACUCAUGUUCAACAUGAGGAUCACCCAUGUACCUUAUUUUAACAGGACCGGGACGUAAUAGA [JR_ExcTryptoB_Sub001] | 165 | – | 264 | 258 | – |
| CGGUAUGGGACGGCCGCCACUAUUAUGUAACAAAAUAAACAUGAGGAUCACCCAUGUACAUGGGAUAGGACCGGGUCCUAUAGCG [#23 Same State - Tryptophan B] | 19.8 | 55.7 | 70.9 | 133 | 17.7 |
| UGCCGAGACGUGGAUUACCCGUGUACCGAAGGAGCGCCCGAAAGGGCAGGUAGGUCGCGGAGGACAUGAGGAUCACCCAUGUCGA | 37.3 | 52.1 | 93.5 | 65 | 83.7 |
| AUAAGUAAUGUUUCGUGUAUUAUUACAGAUACCAGACUAUCCUAUGUCCCUUGGCAGCUGGAUUACAUGAGGAUCACCCAUGUUG [JR_ExcTheophyA_Sub001] | 15.7 | – | 20.3 | – | 17.1 |
